Data on 1 substance can be found in paper PMC9243006.

Usually Kd stands for the constant that tells how readily two partners part at equilibrium.

The target of this assay is purified complement factor H protein (UniProt P06909). Briefly: SPR; CFH immobilised by amine coupling on a sensor chip; rTraT at 80, 40, 20, 10, 5 or 2.5 µg/ml. For orientation: In SPR one partner is held on a chip, and binding of the other changes the refractive index at the surface.
Sequence of UniProt P06909 (P06909 19-1234): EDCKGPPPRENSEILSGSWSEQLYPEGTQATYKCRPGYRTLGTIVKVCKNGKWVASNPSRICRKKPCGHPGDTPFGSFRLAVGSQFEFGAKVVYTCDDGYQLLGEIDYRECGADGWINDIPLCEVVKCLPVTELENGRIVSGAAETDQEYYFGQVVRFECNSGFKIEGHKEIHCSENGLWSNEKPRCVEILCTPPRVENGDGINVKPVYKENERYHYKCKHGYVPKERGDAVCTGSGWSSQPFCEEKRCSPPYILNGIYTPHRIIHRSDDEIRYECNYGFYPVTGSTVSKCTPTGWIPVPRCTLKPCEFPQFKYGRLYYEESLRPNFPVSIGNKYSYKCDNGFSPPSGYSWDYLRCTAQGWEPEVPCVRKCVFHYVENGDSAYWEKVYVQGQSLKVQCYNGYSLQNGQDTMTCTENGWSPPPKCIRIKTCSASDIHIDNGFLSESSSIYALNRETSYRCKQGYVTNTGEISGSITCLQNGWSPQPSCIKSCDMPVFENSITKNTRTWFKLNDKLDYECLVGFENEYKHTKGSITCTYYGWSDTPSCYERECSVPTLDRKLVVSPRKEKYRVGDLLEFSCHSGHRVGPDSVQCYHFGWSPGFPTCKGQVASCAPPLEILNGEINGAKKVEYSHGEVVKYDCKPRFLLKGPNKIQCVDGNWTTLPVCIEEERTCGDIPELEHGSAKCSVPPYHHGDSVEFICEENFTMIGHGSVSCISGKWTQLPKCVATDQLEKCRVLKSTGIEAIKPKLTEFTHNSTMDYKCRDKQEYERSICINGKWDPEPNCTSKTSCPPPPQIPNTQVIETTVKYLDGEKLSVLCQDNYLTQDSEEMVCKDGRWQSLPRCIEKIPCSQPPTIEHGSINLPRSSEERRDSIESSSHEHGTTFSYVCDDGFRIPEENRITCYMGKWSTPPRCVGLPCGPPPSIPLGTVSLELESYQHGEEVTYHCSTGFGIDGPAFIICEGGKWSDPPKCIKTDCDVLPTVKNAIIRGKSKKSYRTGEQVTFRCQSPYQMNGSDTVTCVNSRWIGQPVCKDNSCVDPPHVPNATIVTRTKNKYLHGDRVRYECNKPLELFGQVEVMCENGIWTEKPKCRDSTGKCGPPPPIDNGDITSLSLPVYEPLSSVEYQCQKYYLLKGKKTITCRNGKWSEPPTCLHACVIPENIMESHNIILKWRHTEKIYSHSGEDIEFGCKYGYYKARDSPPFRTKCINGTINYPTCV

“recombinant TraT (rTraT) (domain or fragment)” came in with a Kd of 3.15 µM.
